Source: US11739333B2, “Regulation of gene expression by aptamer-modulated RNase p cleavage” (MeiraGTx UK II Limited, priority 2017, dated 2023)
Residue numbers refer to the chain shown, from its start. Entries after “also recorded” stand apart in the source; their conditions may differ.

Test system: luciferase target gene expression in HEK 293 cells (aptamer-modulated RNase P cleavage of mRNA)
Assay: Firefly luciferase assay of transfected cells treated with or without aptamer ligand
Format: cell-based
Details: for induction fold of luciferase expression, guanosine-treated versus solvent control-treated cells: 500 μM guanosine vs 0.5% DMSO; for reduction in luciferase activity compared to control construct (Con8): absence of guanosine; for luciferase activity as % of control construct: presence of guanosine (500 μM)
Protocol: Firefly luciferase assay of cultured cells: 3.5×10^4 HEK 293 cells were plated in 96-well flat bottom plate the day before transfection. Plasmid DNA (500 ng) was added to a tube or a 96-well U-bottom plate. Separately, TransIT-293 reagent (Minis; 1.4 μL) was added to 50 μL opti-mem I media (Life Technologies) and allowed to sit for 5 minutes at room temperature (“RT”). Then, 50 μL of this diluted transfection reagent was added to the DNA, mixed, and incubated at RT for 20 min. Finally, 7 μL of this solution was added to a well of cells in a 96-well plate. 4 hours after transfection, medium containing transfection solution was replaced with fresh medium. 24 hours after media change, plates were removed from the incubator, and equilibrated to RT for several minutes on a lab bench, then aspirated. Glo-lysis buffer (Promega, 100 μL, RT) was added, and the plates allowed to remain at RT for at least 5 minutes. Then, the well contents were mixed by 50 μL trituration, and 20 μL of each sample was mixed with 20 μL of bright-glo reagent (Promega) that had been diluted to 10% in glo-lysis buffer. 96 wells were spaced on an opaque white 384-well plate. Following a 5-min incubation at RT, luminescence was measured using a Tecan machine with 500 mSec read time. The luciferase activity was expressed as mean arbitrary light unit (ALU)±S.D.
Plasmid constructs: oligonucleotide fragments containing mascRNA and guanine aptamer sequences (Mandal, M, et al., Cell 113, 577-586 (2003), incorporated herein by reference) were synthesized (IDT) and cloned into a luciferase (Luci) expression construct (Con8) in the 3′ UTR region using compatible restriction sites BamHI and XhoI. All the constructs were verified by DNA sequencing (Genewiz).
Firefly luciferase assay of cultured cells: cells were transfected as described in Example 1. Four hours after transfection, medium containing transfection solution was replaced by medium with either 0.5% DMSO as solvent control or 500 μM guanosine (Sigma) as aptamer ligand. Twenty-two to twenty-four hours after treatment, a luciferase assay was performed as described in Example 1.
Plasmid construction: a DNA fragment containing sequences for the guanine aptamer xpt-G and human arginine pre-tRNA (Nashimoto M. N. et al. Long 5′ leaders inhibit removal of a 3′ trailer from a precursor tRNA by mammalian tRNA 3′ processing endoribonuclease. Nucleic Acids Research, 1999; 27(13): 2770-2776) were synthesized (IDT). The synthesized DNA fragments were digested with BamHI and XhoI restriction enzymes and cloned into the Con8 construct digested with the same restriction enzymes. Construct sequences were verified by DNA sequencing (Genewiz).
Plasmid construction: a DNA fragment containing sequences for the adenine aptamer ydhl-A (M. Mandal and R. R. Breaker, Adenine riboswitches and gene activation by disruption of a transcription terminator. Nature Structural & Molecular Biology. 2004; 11: 29-35, incorporated herein by reference) or theophylline aptamer (G. R. Zimmerman, et al. Interlocking structural motifs mediate molecular discrimination by a theophylline-binding RNA. Nature Structural Biology. 1997; 4: 644-649, incorporated herein by reference), and mascRNA sequence were synthesized (IDT). The synthesized DNA fragments were digested with BamHI and XhoI restriction enzymes and cloned into Con8 digested with the same restriction enzymes. Construct sequences were verified by DNA sequencing (Genewiz).
Four hours after transfection, the media was aspirated, and new media with NaOH (1 mM) as solvent or 1 mM adenine (Calbiochem), or 3 mM theophylline (Sigma) was added. The induction fold was expressed as the quotient of luciferase activity obtained in the presence of aptamer ligand divided by the value obtained in the absence of the aptamer ligand. […]

B1: MG1: SEQ ID NO: 1; guanine aptamer immediately downstream of mascRNA in luciferase 3' UTR (nucleic acid)
chain: CCTCATAAAGGCCAAGAAGGGCGGAAAGATCGCCGTGTAAGGATCCAAGACGAGCTGTACAAGTAAAGCGGCCAATTCGGACAAAAACGAGACGCTGGTGGCTGGCACTCCTGGTTTCCAGGACGGGGTTCAAGTCCCTGCGGTGTCTATAATCGCGTGGATATGGCACGCAAGTTTCTACCGGGCACCGTAAATGTCCGACTAGACACCATCTAGAGTCGACCTGCAGGCATGCAAGCTTCAGCTGCTCGAGGGCCCAGATCTAATTCACCCCACCAGTGCAGGCTGCCTATCAG
- induction fold of luciferase expression, guanosine-treated versus solvent control-treated cells: 2.1 fold
- reduction in luciferase activity compared to control construct (Con8): 32%
- luciferase activity as % of Luci control construct (absence of guanosine (DMSO solvent control)): about 68%
- luciferase activity as % of control construct: 100%

B2: GM6: SEQ ID NO: 8; 1 nucleotide between effector region stem and mascRNA acceptor stem (nucleic acid)
chain: CCTCATAAAGGCCAAGAAGGGCGGAAAGATCGCCGTGTAAGGATCCAAGACGAGCTGTACAAGTAAAGAAGAGCTAATGTATAATCGCGTGGATATGGCACGCAAGTTTCTACCGGGCACCGTAAATGTCCGACTACATTAGCAGACGCTGGTGGCTGGCACTCCTGGTTTCCAGGACGGGGTTCAAGTCCCTGCGGTGTCTTTGCTTGGATCGGCCGCGACTCTAGAGTCGACCTGCAGGCATGCAAGCTTCAGCTGCTCGAGGGCCCAGATCTAATTCACCCCACCAGTGCAGGCTGCCTATCAG
- luciferase expression in response to guanine treatment (guanine treatment): upregulate luciferase expression

B3: GM7: SEQ ID NO: 9; 2 nucleotides between effector region stem and mascRNA acceptor stem (nucleic acid)
chain: CCTCATAAAGGCCAAGAAGGGCGGAAAGATCGCCGTGTAAGGATCCAAGACGAGCTGTACAAGTAAAGAAGAGCTAATGTATAATCGCGTGGATATGGCACGCAAGTTTCTACCGGGCACCGTAAATGTCCGACTACATTAGCGAGACGCTGGTGGCTGGCACTCCTGGTTTCCAGGACGGGGTTCAAGTCCCTGCGGTGTCTTTGCTTGGATCGGCCGCGACTCTAGAGTCGACCTGCAGGCATGCAAGCTTCAGCTGCTCGAGGGCCCAGATCTAATTCACCCCACCAGTGCAGGCTGCCTATCAG
- luciferase expression in response to guanine treatment (guanine treatment): upregulate luciferase expression

B4: GM1: SEQ ID NO: 2; guanine aptamer upstream of mascRNA, 7-nucleotide leader in effector region stem (nucleic acid)
chain: CCTCATAAAGGCCAAGAAGGGCGGAAAGATCGCCGTGTAAGGATCCAAGACGAGCTGTACAAGTAAAGCGGCCGTAATGTATAATCGCGTGGATATGGCACGCAAGTTTCTACCGGGCACCGTAAATGTCCGACTACATTACGACGCTGGTGGCTGGCACTCCTGGTTTCCAGGACGGGGTTCAAGTCCCTGCGGTGTCTTTGCTTGGATCGGCCGCGACTCTAGAGTCGACCTGCAGGCATGCAAGCTTCAGCTGCTCGAGGGCCCAGATCTAATTCACCCCACCAGTGCAGGCTGCCTATCAG
- induction fold of luciferase expression, guanosine-treated versus solvent control-treated cells: 2.9 fold
- reduction in luciferase activity compared to control construct (Con8): 52%
- luciferase activity as % of control construct: ~100%

B5: GM4: SEQ ID NO: 5; GM1 with CGGC upstream of the effector region mutated to AAGA (nucleic acid)
chain: B4 chain with C69A, G70A, C72A
- basal level luciferase activity (absence of guanine): lower level of luciferase activity than GM1

B6: GM3: SEQ ID NO: 4; 5-nt sequence between effector region stem and acceptor stem of mascRNA (nucleic acid)
chain: CCTCATAAAGGCCAAGAAGGGCGGAAAGATCGCCGTGTAAGGATCCAAGACGAGCTGTACAAGTAAAGCGGCCGGACAAAATAATCGCGTGGATATGGCACGCAAGTTTCTACCGGGCACCGTAAATGTCCGACTTTTGTCCAACGAGACGCTGGTGGCTGGCACTCCTGGTTTCCAGGACGGGGTTCAAGTCCCTGCGGTGTCTTTGCTTGGATCGGCCGCGACTCTAGAGTCGACCTGCAGGCATGCAAGCTTCAGCTGCTCGAGGGCCCAGATCTAATTCACCCCACCAGTGCAGGCTGCCTATCAG
- luciferase expression upon guanosine treatment (guanosine treatment): no increase in luciferase expression; also recorded: does not regulate luciferase gene expression

B7: GM2: SEQ ID NO: 3; guanine aptamer upstream of mascRNA, 6-nucleotide leader in effector region stem (nucleic acid)
chain: CCTCATAAAGGCCAAGAAGGGCGGAAAGATCGCCGTGTAAGGATCCAAGACGAGCTGTACAAGTAAAGCGGCCCGATCATATAATCGCGTGGATATGGCACGCAAGTTTCTACCGGGCACCGTAAATGTCCGACTATGGTCGACGCTGGTGGCTGGCACTCCTGGTTTCCAGGACGGGGTTCAAGTCCCTGCGGTGTCTTTGCTTGGATCGGCCGCGACTCTAGAGTCGACCTGCAGGCATGCAAGCTTCAGCTGCTCGAGGGCCCAGATCTAATTCACCCCACCAGTGCAGGCTGCCTATCAG
- induction fold of luciferase expression, guanosine-treated versus solvent control-treated cells: 1.9 fold
- reduction in luciferase activity compared to control construct (Con8): 40%

B8: GM5: SEQ ID NO: 7; zero nucleotides between effector region stem and mascRNA acceptor stem (nucleic acid)
chain: CCTCATAAAGGCCAAGAAGGGCGGAAAGATCGCCGTGTAAGGATCCAAGACGAGCTGTACAAGTAAAGAAGAGCTAATGTATAATCGCGTGGATATGGCACGCAAGTTTCTACCGGGCACCGTAAATGTCCGACTACATTAGCGACGCTGGTGGCTGGCACTCCTGGTTTCCAGGACGGGGTTCAAGTCCCTGCGGTGTCTTTGCTTGGATCGGCCGCGACTCTAGAGTCGACCTGCAGGCATGCAAGCTTCAGCTGCTCGAGGGCCCAGATCTAATTCACCCCACCAGTGCAGGCTGCCTATCAG
- basal level luciferase activity (absence of guanine): lower level of luciferase activity

B9: GM4_2C: SEQ ID NO: 6; two copies of GM4 inserted in tandem in the 3' UTR (nucleic acid)
chain: CCTCATAAAGGCCAAGAAGGGCGGAAAGATCGCCGTGTAAGGATCCAAGACGAGCTGTACAAGTAAAGAAGACGTAATGTATAATCGCGTGGATATGGCACGCAAGTTTCTACCGGGCACCGTAAATGTCCGACTACATTACGACGCTGGTGGCTGGCACTCCTGGTTTCCAGGACGGGGTTCAAGTCCCTGCGGTGTCTTTGCTTGGATCGGCCGCGACTCTAGAGTCGACCTGCAGGCATGCAAGCTTCAGAAGTAAAGAAGACGTAATGTATAATCGCGTGGATATGGCACGCAAGTTTCTACCGGGCACCGTAAATGTCCGACTACATTACGACGCTGGTGGCTGGCACTCCTGGTTTCCAGGACGGGGTTCAAGTCCCTGCGGTGTCTTTGCTTGGATCGGCCGCGACTCTAGAGTCGACCTGCAGGCATGCAAGCTTCAGCTGCTCGAGGGCCCAGATCTAATTCACCCCACCAGTGCAGGCTGCCTATCAG
- basal level luciferase expression as % of control construct Con8 (absence of guanine): 18%
- induction fold of luciferase, with guanine versus without guanine (guanine treatment): 3.95 fold
- induced luciferase expression as % of Con8 (presence of guanine treatment): 51%
